The results in this text go back to the nanobody polyreactivity screen of Harvey et al. (2022).

This series can be described thus: yeast display, Sf9 membrane polyspecificity reagent, FACS + sequencing; frameworks hold sequencing errors. The gist of the method: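 A synthetic nanobody library was expressed on Saccharomyces cerevisiae BJ5465 by galactose induction for 36–48 hours. The library was stained for 1 hour at 4 °C with 10% biotinylated, detergent-solubilized Sf9 membrane reagent and enriched with streptavidin microbeads before FACS. Low and high (top ~1%) gates were set on anti-HA fluorescence for expression and streptavidin fluorescence for reagent binding, and each polyreactivity label reflects the gate of origin.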
On to “QVQLVESGGGLVQAGGSLRLSCAASGSTFFVYAMGWYRQPPGKERELVADINWSSGITYYADSVKGRFTISRDNAKNNVYLQMNSLKREDTAVYYCKKDERYVTWSYFPNRYNYWGQGTQVTVSS”, for which the “polyreactivity (PSR sort gate)” value is on record as “low polyreactivity”.
As for “QVQLVESGGGLVQAGGSLRLSCAASGSTFFYYAMGWYRQAPGKERELVAAISGNGGSTYYADSVKGRFTISRDNAKNTVYLQMNSLKPEDPAVYYCAAVSSWDEYYYWGQGTQVTVSS”, the entry is “high polyreactivity”; as for “QVQLVESGGGLVQAGGSLRLSCAASGSTFGANAMGWYRQAPGKEREFVAAISRSGVRTYYADSVKGRFTISRDNAKNTVYVQMNSLKPEDSAVYYCAADGYWLTYTRYDYWGQGTQVTVSS”, “low polyreactivity”.
The result for “QVQLVESGGGLVQAGGSLRLSCAASGSTFGANAMGWYRQAPGKERELVAVITWNDGSTYYADSVKGRFTISRDNAKNTVYLQMNSLKPEDTAVYYCATDPTSGRFYYWGQGTQVTVSS” reads “high polyreactivity”; that for “QVQLVESGGGLVQAGGSLRLSCAASGSTFGAYAMGWYRQAPGKEREFVAGISVRGGSTYYADSVKGRFTISRDNAKNTVYLQMNSLKPEDTAVYYCAARRVDTRFHVRYRYYYWGQGTQVTVSS”, “high polyreactivity”; that for “QVQLVESGGGLVQAGGSLRLSCAASGSTFGAYDMGWYRQAPGKERELVAVISSRDGSTYYADSVKGRFTISRDNAKNTVYLQMNSLKPEDTAVYYCAADYPVPYNGGDGSWGQGTQVTVSS”, “low polyreactivity”.
As for “QVQLVESGGGLVQAGGSLRLSCAASGSTFGAYVMGWYRQAPGTERELVAVISSGGSTKYADSVKGRFTISRDNAKNTVYLQMNSLKPEDTAVYYCSARRASRHRYYPFDYWGQGTQVTVSS”, the entry is “high polyreactivity”; as for “QVQLVESGGGLVQAGGSLRLSCAASGSTFGDNAMGWYRQAPGKERELVATITSGGNTNYADSVKGRFTISRDNAKNTVYLQMNSLKPEDTAGYYCNTDFRPAGTTGTTTARYEYWGQGTQVTLSS”, “low polyreactivity”.
As for “QVQLVESGGGLVQAGGSLRLSCAASGSTFGDYAMGGYRQAPGKERELVAAISFSDGSTYYADSVKGRFTISRDNAKNTVYLQMNSLKPEDTAVYYCAKDAYWGYRWYTYDYWGQGTQVTVSS”, the “polyreactivity (PSR sort gate)” value was “low polyreactivity”.
As for “QVQLVESGGGLVQAGGSLRLSCAASGSTFGDYAMGGYRQAPGKERELVAANDQNGGSTYYADSVKGRITISRDNAKNTVYLQMNSLIPEDTAVYYCAAESIYDWYDYGGQGTQVTVSS”, the entry is “low polyreactivity”.
Take “QVQLVESGGGLVQAGGSLRLSCAASGSTFGDYAMGWYRQAPGKREFVAAISFSGGNTYYADSVKGRFTISRDNAKNTVYLQMNSLKPEDTAVYYCNASSYPWEYYYLYYGYDYWGQGTQVTVSS”: the “polyreactivity (PSR sort gate)” value was “low polyreactivity”.
For the sequence “QVQLVESGGGLVQAGGSLRLSCAASGSTFGEYAMGWSRQAPGKERELVATITSAGSTYYADSVKGRITFSRDNAKYTVYLQMNSLKPEDTAVYYCAVDPISQGHMDYWVQGTQVTVSS”, the “polyreactivity (PSR sort gate)” value is reported as “low polyreactivity”.
Take “QVQLVESGGGLVQAGGSLRLSCAASGSTFGEYAMGWYRQAPGKERELVAVITSDDNTYYADSVKGRFTISRDNAKNTVYLQMNSLKPEDTAVYYCAARGYVLARSQQWRREYYWGQGTQVTVSS”: the “polyreactivity (PSR sort gate)” value is reported as “high polyreactivity”.
As for “QVQLVESGGGLVQAGGSLRLSCAASGSTFGFNALGWYRQAPGKERELVAAITFSGGTTYYADSVKGRFTISRDNAKNTVYLQMNSLKPEDTAVYYCNADVKRDRVWGGDYWGQGTQVTVSS”, the entry is “low polyreactivity”.
As for “QVQLVESGGGLVQAGGSLRLSCAASGSTFGFNAMGWYRQAPGKERELVAAINSGSTTYADSVKGRFTISRDNAKNTVYLQMNSLKPEDTAVYYCAARYRYRYGYYYWGQGTQVTVSS”, the entry is “high polyreactivity”.
For the sequence “QVQLVESGGGLVQAGGSLRLSCAASGSTFGFYAMGWYRQAPGKEREFVAAITWSGGRTNYADSVKGRFTISRDNAKNTVYLQMNSLKPEDTAVYYCAAEGFVTWYRQGQVYYWGQGTQVTVSS”, the “polyreactivity (PSR sort gate)” value was “high polyreactivity”.
As to “QVQLVESGGGLVQAGGSLRLSCAASGSTFGFYMGWYRQAPGKERELVAAIDSSGGITYADSVKGRFTISRDNAKNTVYLQMNSLKPEDTAVYYCNTSYPIAPEDDYWGQGTQVTVSS”, the “polyreactivity (PSR sort gate)” value was “low polyreactivity”.
For “QVQLVESGGGLVQAGGSLRLSCAASGSTFGGNAMGWYRQAPGKERELVAAISSSGGSTYYADSVKGRFTISRDNAKITVYLQMNSLKPEDTAVYYCAALYHWTYDYWGQGTQVTVSS”, the “polyreactivity (PSR sort gate)” value is “low polyreactivity”.
For the sequence “QVQLVESGGGLVQAGGSLRLSCAASGSTFGGNAMGWYRQAPGKERELVAAISSSGGSTYYADSVKGRFTISRDNAKNTVYLQMNSLKPEDTAVYYCAALYHWTYDYWGQGTQVTVSS”, the “polyreactivity (PSR sort gate)” value is “low polyreactivity”.
The result for “QVQLVESGGGLVQAGGSLRLSCAASGSTFGGNAMGWYRQAPGKERELVAGITSSGTSTYYADSVKGRFTISRDNAKNTVYLQMNSLKPEDTAVYYCATDEADESYGFELFDYWGQGTQVTVSS” reads “low polyreactivity”.
As for “QVQLVESGGGLVQAGGSLRLSCAASGSTFGGNDMGWYRQAPGKERELVAAISSGTSTNYADSVKGRFTISRDNAKNTVYLQMNSLKPEDTAVYYCAAVYWVLWQGSTYGYWGQGTQVTVSS”, the “polyreactivity (PSR sort gate)” value was “low polyreactivity”.
As for “QVQLVESGGGLVQAGGSLRLSCAASGSTFGGYAMGWYRQAPGKERELVAAISFDGGSTYADSVKGRFTISRDNAKNTVYLQMNSLKPEDTAVYYCAVKFWLVIQFDYCGQGTQVTVSS”, the entry is “low polyreactivity”; as for “QVQLVESGGGLVQAGGSLRLSCAASGSTFGGYAMGWYRQAPGKERELVAAISRRGVSTYYADSVKGRFTISRDNAKNTVYLQMNSLKPEDTAVYYFNKKYFYSRHGSWGQGSQVTVSS”, “high polyreactivity”.
The result for “QVQLVESGGGLVQAGGSLRLSCAASGSTFGGYAMGWYRQAPRKERELVAAISQSGTRTFYADSVKGRFSISRDNAKNTVYLQMKSLKPEDSAVYYCAAVRSYRRALLTLDYWGLGTQVTVSS” reads “high polyreactivity”.
“QVQLVESGGGLVQAGGSLRLSCAASGSTFGGYAMGWYRQEPGKERELVAAISSRGARTYYADSVKGRFTISRDNAKKTVYLQMNSLKPEDTAVYYCAARGPLDRYGYWGQGTQVTVSS”: the “polyreactivity (PSR sort gate)” value is “high polyreactivity”.
The result for “QVQLVESGGGLVQAGGSLRLSCAASGSTFGGYPMGRYRQAPGKERELGAAITWSGSSTTYADSVKGRFTISRDNAKKTVYLQMNSLKPEETAVYYCAAEAQDSTYPQYDYWGQGTLVTVSS” reads “low polyreactivity”; that for “QVQLVESGGGLVQAGGSLRLSCAASGSTFGGYTMGWYRQAPGKERELVAAISRRGGSTYYADSVKGRFTISRDNAKNTVYLQMNSLKPEDTAVYYCAALYVYRPRTPYGYWGQGTQVTVSS”, “high polyreactivity”.
For the sequence “QVQLVESGGGLVQAGGSLRLSCAASGSTFGGYVMGWYRQAPGKERELVAAISGNGASTTYADSVKGRFTISRDNAKNTVYLQMNSLKPEDTAVYYCDALYRKAHSDYDYWGQGTQVTVSS”, the “polyreactivity (PSR sort gate)” value is “low polyreactivity”.
As for “QVQLVESGGGLVQAGGSLRLSCAASGSTFGHYAMGWSRQAPGKERELVAAISWSGASTYYADSVKGRFTISRDNAKNTVYLQMNSLKPEDTAVYYCATVGPWPGEYDYWGQGTQVTVSS”, the “polyreactivity (PSR sort gate)” value is given as “low polyreactivity”.
The result for “QVQLVESGGGLVQAGGSLRLSCAASGSTFGHYAMGWSRQAPGKERELVAVISRSGARTYYADSVKGRFTISRDNAKNTVYLQMNSLKPEDTAVYYCATTYATNYDYWGQGTQVTVSS” reads “high polyreactivity”.
As for “QVQLVESGGGLVQAGGSLRLSCAASGSTFGHYAMGWYRQAPGKERELVAAITRRGGSTYYADSVKGRFTISRDNAKNTVYLQMNSLKPEDTAVYYCATDKHYVYYSSHMGYWGQGTQVTVSS”, the entry is “high polyreactivity”; as for “QVQLVESGGGLVQAGGSLRLSCAASGSTFGHYAMRSYRQAPGKERQLVAGITDTDNHELRRLCEGRFTISRDNAKNTVYLQMNSLKPEDTAVYDCDAGSNAVFYDYGYWGQGTQVTVSS”, “low polyreactivity”.
Take “QVQLVESGGGLVQAGGSLRLSCAASGSTFGHYVMGWYRQAPGKERELVAVISSSGGRTYYADSVKGRFTISRDNAKNTVYLQMNSLKPEDTAVYYCAAGSISTPGRGVDKPDPYDYWGQGTQVTVSS”: the “polyreactivity (PSR sort gate)” value is listed as “low polyreactivity”.
For the sequence “QVQLVESGGGLVQAGGSLRLSCAASGSTFGINAMGWYRQAPGKERDLVAAISSRGGSTYYADSVKGRFTISRDNAKNTVYLLMNSLKPEDTAVYYCAAEFAVSFYWSWLGQDYYYWGQGTQVTVSS”, the “polyreactivity (PSR sort gate)” value was “high polyreactivity”.
As to “QVQLVESGGGLVQAGGSLRLSCAASGSTFGINAMGWYRQAPGKERELVARISTGVRTYYADSVKGRFTISRDNAKNTVYLQMNSLKPEDTAVYYCAAVYYRGVDRAILSYRYYYWGQGTQVTVSS”, the “polyreactivity (PSR sort gate)” value was “high polyreactivity”.
As for “QVQLVESGGGLVQAGGSLRLSCAASGSTFGINTMGWYRQAPGKERELVATISQRGTRTYYADSVKGRFTISRDNAKNTVYLQMNSLKPEDTAVYYCNKDVYLYYYTRRSGRLDYWGQGTQVTVSS”, the “polyreactivity (PSR sort gate)” value is reported as “high polyreactivity”.
Take “QVQLVESGGGLVQAGGSLRLSCAASGSTFGIYAMGWYRQAPGKERELVAAISWRGGRTYYADSVKGRFTISRDNAKNTVYLQMNSLKPEDTAVYYCAADYRYLWEGYDYWGQGTQVTVSS”: the “polyreactivity (PSR sort gate)” value is recorded as “low polyreactivity”.
As for “QVQLVESGGGLVQAGGSLRLSCAASGSTFGKNAMAWYRQAPGKERELVAAITSSGGRTYYADSVKGRFTISRDNAKNTVYLQMNSLKPEDTAVYYCNSVTRRRSLGPWPVEYDYWGQGTQVTVSS”, the entry is “high polyreactivity”.
With “QVQLVESGGGLVQAGGSLRLSCAASGSTFGKNAMGWYRQAPGKERELVAAITSSGGRTYYADSVKGRFTISRDNAKNTVYLQMNSLKPEDTAVYYCNAVTRRRSLGPWPVEYDYWGQGTQVTVSS”, the “polyreactivity (PSR sort gate)” value is on record as “high polyreactivity”.
Turning to “QVQLVESGGGLVQAGGSLRLSCAASGSTFGKYAMGWSRPAPGKERELVAAITVNAGRTYYADSVKGRFTISRDNAKNTVYLQMNSLKPEDTAVYYCNADFFTIYDYWGQGTQVTVSS”, the “polyreactivity (PSR sort gate)” value is “high polyreactivity”.
